# Substitutions are numbered along the chain they refer to. In names and notes the source's numbering stands.
# B1: Ric-8A (1-491) P466A (domain or fragment)
# chain: MEPRAVADALETGEEDAVTEALRSFNREHSQSFTFDDAQQEDRKRLAKLLVSVLEQGLSPKHRVTWLQTIRILSRDRSCLDSFASRQSLHALACYADIAISEEPIPQPPDMDVLLESLKCLCNLVLSSPTAQMLAAEARLVVRLAERVGLYRKRSYPHEVQFFDLRLLFLLTALRTDVRQQLFQELHGVRLLTDALELTLGVAPKENPLVILPAQETERAMEILKVLFNITYDSVKREVDEEDAALYRYLGTLLRHCVMADAAGDRTEEFHGHTVNLLGNLPLKCLDVLLALELHEGSLEFMGVNMDVINALLAFLEKRLHQTHRLKECVAPVLSVLTECARMHRPARKFLKAQVLPPLRDVRTRPEVGDLLRNKLVRLMTHLDTDVKRVAAEFLFVLCSESVPRFIKYTGYGNAAGLLAARGLMAGGRPEGQYSEDEDTDTEEYREAKASINPVTGRVEEKPPNAMEGMTEEQKEHEAMKLVNMFDKLSR
# B2: Ric-8A (1-491) E468A (domain or fragment)
# chain: B1 chain with A466P, E468A
# B3: Ric-8A (1-491) T456A (domain or fragment)
# chain: B1 chain with T456A, A466P
# B4: Ric-8A (1-491) P454A (domain or fragment)
# chain: B1 chain with P454A, A466P
# B5: Ric-8A (1-491) M467A (domain or fragment)
# chain: B1 chain with A466P, M467A
# B6: Ric-8A (1-491) G469A (domain or fragment)
# chain: B1 chain with A466P, G469A
# B7: Ric-8A (1-491) V455A (domain or fragment)
# chain: B1 chain with V455A, A466P
# B8: (1-452)Ric-8A truncation mutant (domain or fragment)
# chain: MEPRAVADALETGEEDAVTEALRSFNREHSQSFTFDDAQQEDRKRLAKLLVSVLEQGLSPKHRVTWLQTIRILSRDRSCLDSFASRQSLHALACYADIAISEEPIPQPPDMDVLLESLKCLCNLVLSSPTAQMLAAEARLVVRLAERVGLYRKRSYPHEVQFFDLRLLFLLTALRTDVRQQLFQELHGVRLLTDALELTLGVAPKENPLVILPAQETERAMEILKVLFNITYDSVKREVDEEDAALYRYLGTLLRHCVMADAAGDRTEEFHGHTVNLLGNLPLKCLDVLLALELHEGSLEFMGVNMDVINALLAFLEKRLHQTHRLKECVAPVLSVLTECARMHRPARKFLKAQVLPPLRDVRTRPEVGDLLRNKLVRLMTHLDTDVKRVAAEFLFVLCSESVPRFIKYTGYGNAAGLLAARGLMAGGRPEGQYSEDEDTDTEEYREAKASI
# Target: myristoylated Gαi1 harboring a hexahistidine tag in the helical domain (rat) (UniProt P10824)
# Chain of UniProt P10824 (P10824 whole entry, the tested form may be a part): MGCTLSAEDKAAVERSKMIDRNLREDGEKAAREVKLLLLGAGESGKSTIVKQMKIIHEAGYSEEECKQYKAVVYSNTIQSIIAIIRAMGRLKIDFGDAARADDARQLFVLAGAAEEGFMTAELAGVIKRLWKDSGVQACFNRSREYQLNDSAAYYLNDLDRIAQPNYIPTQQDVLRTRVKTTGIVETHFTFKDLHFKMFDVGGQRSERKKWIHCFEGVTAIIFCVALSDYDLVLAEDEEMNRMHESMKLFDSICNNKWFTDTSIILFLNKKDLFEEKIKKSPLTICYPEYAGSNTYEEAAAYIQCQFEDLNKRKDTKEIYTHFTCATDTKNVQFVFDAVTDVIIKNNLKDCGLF
"v1: initial velocity of GDP to GTPγS exchange at Gαi1•GDP (2 μM) on adding GTPγS (10 μM) and Ric-8A (2 μM), tryptophan fluorescence, 25°C","v2: initial rate of GTPγS binding to pre-formed Gαi1:Ric-8A (2 μM each, incubated 5 min before 10 μM GTPγS), with release of Ric-8A, tryptophan fluorescence, 25°C",Binder
0.47 µM/min,0.34 µM/min,B1
3.82 µM/min,6.23 µM/min,B2
0.59 µM/min,0.24 µM/min,B3
2.88 µM/min,5.39 µM/min,B4
2.17 µM/min,4.57 µM/min,B5
0.63 µM/min,0.26 µM/min,B6
0.82 µM/min,0.25 µM/min,B7
0.86 µM/min,0.39 µM/min,B8
